Data set [1] can be described thus: Whole animal surface fluorescence after IV injection (elimination). Type of data set: in vivo, mouse. As to conditions: bladder at 20 minutes, vs (DOTA)Lys-Cys(IR-783) peptide. The text has this: (§1) A Kodak FX multispectral imaging system was used (Carestream Molecular Imaging, Rochester, N.Y.). Excitation at multiple wavelengths (620, 650, 690, 710, 720, 730, 750 and 760 nm) with the emission at 830 nm was setup for IR-783 spectrum; Excitation at multiple wavelengths (420, 440, 460, 480, 510, 520, 530, and 540 nm) with the emission at 600 nm was setup for Cy3 spectrum; Excitation at multiple wavelengths (450, 470, 510, 520, 530, 540, 550, 570, and 590 nm) with the emission at 700 nm was setup for mCherry; with manufacturer's software to separate (unmix) the IR-783 spectrum, Cy3 spectrum, or mCherry spectrum from skin autofluorescence and chlorophyll fluorescence from food. X-ray images were taken after fluorescence images. Animals were anesthetized with 2% isoflurane with O2 flow (2 I/min) during imaging.

The nature of data set [2]: Blood half-life from serum fluorescence after tail injection. Type of data set: in vivo. The conditions noted are these: mouse, IV; single decay constant fit. How it is done: Using these procedures and PEG's of different molecular weights, PEG-like NIR fluorochromes of different molecular weights, volumes and pharmacokinetics were synthesized, with results summarized in Table 3B. Blood half-lives were determined by tail injection into mice and measuring serum fluorescence as a function of time. Data (fluorescence versus time) were fit to a single decay constant equation to yield blood half-lives. Human pharmacokinetics will be far slower than that of mice.

Data set [3] is described as follows: PN pharmacokinetics, blood fluorescence fit to two-compartment model. Type of data set: in vivo, mouse. As to conditions: for Alpha half-life / Alpha rate / Beta half-life / Beta rate: nude mice, IV, 10 nmole, biexponential fit; for k elim half-life / k elim rate / k perm half-life / k perm rate / k vas return half-life / k vas return rate: two-compartment model micro constant. The protocol:
Groups of 5 nude mice (female; 25-30 g; 6-8 weeks old; nu/nu) were injected (tail vein, IV) with 10 nmole of PN(783)4.3 or PN(783)10.0. 50 μl of blood was collected from tail tip at the indicated times. The blood was processed as above, and diluted (25 μl plasma, 700 μl of PBS). Fluorescence was measured with Cary Eclipse Fluorescence Spectrophotometer, excitation at 765 nm and emission from 790 to 880 nm. The fluorescence intensity at 806 nm was plotted over time, and the data was fit with two-phase decay curve. The fast and slow distribution half-life was given by the two-phase decay fit with Graphpad Prism software.
From the two-phase decay fit, a biexponential equation for blood concentration as a function of time, was obtained. By the relation of macro constants and micro constants, micro constants k's can be obtained, and the half-life was calculated by as described in Rosenbaum, S. E. Basic Pharmacokinetics and Pharmacodynamics: An Integrated Textbook and Computer Simulations, (John Wiley and Sons, Hoboken, N.J., 2011). The curve for interstitium concentration vs. time was fit with MATLAB based on the curve of blood concentration vs. time.
Serum fluorescence data from FIG. 24b and FIG. 24c was analyzed using the two-compartment model as described in Rosenbaum, S. E. Basic Pharmacokinetics and Pharmacodynamics: An Integrated Textbook and Computer Simulations, (John Wiley and Sons, Hoboken, N.J., 2011). Data were first fit to biexponential equation, yielding values of Alpha, Beta (apparent decay constants) and values of A and B as shown in equations 1 and 2 below.
By the relation of macro constants and micro constants, […]

The conditions of data set [4]: mouse, in vivo. The protocol: At two hours post injection, agent is in the blood and interstitium. By 24 hours post injection, tumors are becoming apparent as agent is being cleared. At 48 hours, labeling is highly tumor selective. […] By surface fluorescence, as with SPECT, labeling is highly tumor selective at 48 hours. Biodistribution as organ radioactivity concentrations FIG. 26(c) and total organ radioactivity FIG. 26(d) were obtained by dissection and ^111In counting at 24 hours and 48 hours post injection. Even at 48 hours post injection some 7.5% of injected dose is in the blood, with less than 5% in liver, even though the diameter of PN(783)10.0 exceeds that of albumin (6.7 nm). Data are means and standard deviations. […] By 72 hours, some 17% of injected dose was retained, approximately half of which was still in the blood based on FIG. 26d.

Data set [5] concerns HT-29 tumor. Type of data set: in vivo, mouse.
Description: as §1
Female nude mice (25-30 g; 6-8 weeks old; nu/nu) were anesthetized with 2% isoflurane/O2. HT-29 or mCherry-HT-29 cells were detached, pelleted and 200 μl of cell suspension containing 10^6 cells in Matrigel (BD Bioscience) was injected subcutaneously into right and left shoulders. Tumors were allowed to grow 5-7 days before experiments.
The imaging was performed by Triumph II multimodality imaging system (Gamma Medica Ideas, LLC) comprising XSPECT with four CZT (Cadmium Zink Telluride) detectors and X-O CT with CMOS detector. SPECT data of the ^111In-labeled compound was acquired for 60 minutes using 5-pinhole collimators and processed with 3D-OSEM algorithm using 4 subsets and 5 iterations. 3-dimensional CT data was processed with modified Feldkamp software. […] Animals were under isoflurane anesthesia (1.5%) with O2 flow (1.5 l/min) and kept warm during the imaging with a heated animal bed.
150 μl of ^111In-labeled PN(783)10 (400 μCi, ˜2 nmole) were injected to tumor-bearing animals by tail vein (IV). 24 hours or 48 hours later, animals were sacrificed, and tumors, blood, liver, spleen, stomach, kidneys, small intestine, lung, heart, tail, fat, and muscle, were collected. Radioactivity was measured with Perkin Elmer, Wizard2 2480 gamma counter.

Turning to “(DOTA)Lys(PEG5K)-Cys(IR-783) [PN(783)4.3]”, the “fluorochrome elimination after IV injection” value in data set [1] is given as “enhanced fluorochrome elimination”. For the same substance, in data set [2], the Serum half-life was found to be 0.218 h. In data set [3], this substance yielded an Alpha half-life of 0.13 h, an Alpha rate of 5.30 h⁻¹, a Beta half-life of 1.64 h and a Beta rate of 0.42 h⁻¹. Further, in data set [3], the k elim half-life turned out to be 1.01 h, the k elim rate worked out at 0.68 h⁻¹, the k perm half-life is 0.40 h and the k perm rate came out at 1.74 h⁻¹. Further, in data set [3], the “k vas return half-life” value is given as 0.20 h and the “k vas return rate” value was determined as 3.30 h⁻¹.

For “(DOTA)Lys(PEG30K)-Cys(IR-783) [PN(783)10.0]”, the “injected dose retained (whole animal)” value in data set [4] is reported as approximately 17%. The “tumor retention (EPR) by SPECT and surface fluorescence” value in data set [5] (HT29 tumor, 48 hours) was “retained in the tumor”. Further, in data set [5] (mouse, in vivo), the “injected dose in the blood” value was approximately 7.5% and the “injected dose in the liver” value was “less than 5%”. In data set [3], this substance had an Alpha half-life of 0.51 h, an Alpha rate of 1.36 h⁻¹, a Beta half-life of 7.0 h and a Beta rate of 0.099 h⁻¹. Further, in data set [3], the k elim half-life is given as 4.2 h, the k elim rate was determined as 0.24 h⁻¹, the k perm half-life was 1.02 h and the k perm rate is 0.67 h⁻¹. Also, in data set [3], the “k vas return half-life” value is given as 1.23 h and the “k vas return rate” value stood at 0.56 h⁻¹.
